Data published in IntAct's records for PubMed 29039417.

B1: Protein PTHB1 (Homo sapiens), Q3SYG4 (parent)
chain: MSLFKARDWWSTILGDKEEFDQGCLCLANVDNSGNGQDKIIVGSFMGYLRIFSPHPAKTGDGAQAEDLLLEVDLRDPVLQVEVGKFVSGTEMLHLAVLHSRKLCVYSVSGTLGNVEHGNQCQMKLMYEHNLQRTACNMTYGSFGGVKGRDLICIQSMDGMLMVFEQESYAFGRFLPGFLLPGPLAYSSRTDSFLTVSSCQQVESYKYQVLAFATDADKRQETEQQKLGSGKRLVVDWTLNIGEQALDICIVSFNQSASSVFVLGERNFFCLKDNGQIRFMKKLDWSPSCFLPYCSVSEGTINTLIGNHNNMLHIYQDVTLKWATQLPHIPVAVRVGCLHDLKGVIVTLSDDGHLQCSYLGTDPSLFQAPNVQSRELNYDELDVEMKELQKIIKDVNKSQGVWPMTEREDDLNVSVVVSPNFDSVSQATDVEVGTDLVPSVTVKVTLQNRVILQKAKLSVYVQPPLELTCDQFTFEFMTPDLTRTVSFSVYLKRSYTPSELEGNAVVSYSRPTDRNPDGIPRVIQCKFRLPLKLICLPGQPSKTASHKITIDTNKSPVSLLSLFPGFASQSDDDQVNVMGFHFLGGARITVLASKTSQRYRIQSEQFEDLWLITNELILRLQEYFEKQGVKDFACSFSGSIPLQEYFELIDHHFELRINGEKLEELLSERAVQFRAIQRRLLARFKDKTPAPLQHLDTLLDGTYKQVIALADAVEENQGNLFQSFTRLKSATHLVILLIALWQKLSADQVAILEAAFLPLQEDTQELGWEETVDAAISHLLKTCLSKSSKEQALNLNSQLNIPKDTSQLKKHITLLCDRLSKGGRLCLSTDAAAPQTMVMPGGCTTIPESDLEERSVEQDSTELFTNHRHLTAETPRPEVSPLQGVSE
partner: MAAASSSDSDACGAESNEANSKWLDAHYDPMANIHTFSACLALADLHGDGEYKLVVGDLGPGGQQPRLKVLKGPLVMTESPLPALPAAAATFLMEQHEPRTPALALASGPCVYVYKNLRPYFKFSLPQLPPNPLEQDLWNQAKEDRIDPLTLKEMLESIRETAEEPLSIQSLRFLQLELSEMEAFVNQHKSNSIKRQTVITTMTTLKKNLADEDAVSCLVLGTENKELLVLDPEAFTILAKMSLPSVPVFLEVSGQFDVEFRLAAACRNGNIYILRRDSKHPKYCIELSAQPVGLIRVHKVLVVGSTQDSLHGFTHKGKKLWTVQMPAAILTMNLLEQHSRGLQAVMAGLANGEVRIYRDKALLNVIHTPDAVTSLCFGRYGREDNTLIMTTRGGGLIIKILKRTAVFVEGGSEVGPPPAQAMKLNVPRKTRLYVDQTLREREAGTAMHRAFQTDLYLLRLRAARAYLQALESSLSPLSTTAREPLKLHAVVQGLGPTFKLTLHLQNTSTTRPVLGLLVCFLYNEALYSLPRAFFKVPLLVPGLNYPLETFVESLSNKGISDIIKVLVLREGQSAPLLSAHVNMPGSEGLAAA

Variants of: B1
Settings: with bbs1_human BBS1, Q8NFJ9

| Variant | effect of a mutation on the interaction |
| --- | --- |
| S570A | with no effect |
| S570E | with no effect |
| S570K | with no effect |
| S570L | disrupting interaction strength |
| K532A | with no effect |
| K532E | with no effect |
| G565E | with no effect |
| G565A | with no effect |
| G565S | disrupting interaction strength |
| G565P | disrupting interaction strength |
| G565K | with no effect |
| V557E | with no effect |
| V557K | with no effect |
| V557A | with no effect |
| P540A | with no effect |
| P540K | with no effect |
| P540E | with no effect |
| F582K | with no effect |
| F582E | with no effect |
| F582A | with no effect |
| D572E | with no effect |
| D572K | with no effect |
| D572A | with no effect |

| Variant | effect of a mutation on the interaction |
| --- | --- |
| F563K | with no effect |
| F563A | with no effect |
| F563E | with no effect |
| Q539E | with no effect |
| Q539K | with no effect |
| Q539A | with no effect |
| M578E | with no effect |
| M578K | with no effect |
| M578A | with no effect |
| K554S | disrupting interaction strength |
| K554E | with no effect |
| K554A | with no effect |
| T543A | with no effect |
| T543K | with no effect |
| T543E | with no effect |
| Q574E | with no effect |
| Q574A | with no effect |
| Q574K | with no effect |
| S541A | with no effect |
| S541E | with no effect |
| S541K | with no effect |
| V577A | with no effect |
| V577E | with no effect |

| Variant | effect of a mutation on the interaction |
| --- | --- |
| V577K | with no effect |
| S561E | with no effect |
| S561K | with no effect |
| S561A | with no effect |
| Q524K | with no effect |
| H546A | with no effect |
| H546K | with no effect |
| H546E | with no effect |
| G584E | with no effect |
| G584K | with no effect |
| G584A | with no effect |
| K542E | with no effect |
| K542A | with no effect |
| L559A | with no effect |
| L559E | with no effect |
| L559K | with no effect |
| T552K | with no effect |
| T552A | with no effect |
| T552E | with no effect |
| R528A | with no effect |
| R528K | with no effect |
| R528E | with no effect |
| V575K | with no effect |

| Variant | effect of a mutation on the interaction |
| --- | --- |
| V575E | with no effect |
| V575A | with no effect |
| F527A | with no effect |
| F527E | with no effect |
| F527K | with no effect |
| F566E | with no effect |
| F566A | with no effect |
| F566K | with no effect |
| L560E | with no effect |
| L560A | with no effect |
| L560K | with no effect |
| K526E | with no effect |
| K526A | with no effect |
| P530A | with no effect |
| P530E | with no effect |
| P530K | with no effect |
| L529K | with no effect |
| L529A | with no effect |
| L529E | with no effect |
| S545N | disrupting interaction strength |
| S545K | with no effect |
| S545A | with no effect |
| S545E | with no effect |

| Variant | effect of a mutation on the interaction |
| --- | --- |
| H581E | with no effect |
| H581A | with no effect |
| H581K | with no effect |
| A544E | with no effect |
| A544K | with no effect |
| I548E | with no effect |
| I548K | with no effect |
| I548A | with no effect |
| P556E | with no effect |
| P556K | with no effect |
| P556A | with no effect |
| D571K | with no effect |
| D571A | with no effect |
| D571E | with no effect |
| P564K | with no effect |
| P564E | with no effect |
| P564A | with no effect |
| C535A | with no effect |
| C535E | with no effect |
| C535K | with no effect |
| L562K | with no effect |
| L562F | disrupting interaction strength |
| L562A | with no effect |

| Variant | effect of a mutation on the interaction |
| --- | --- |
| L562E | with no effect |
| T549A | with no effect |
| T549E | with no effect |
| T549K | with no effect |
| L533A | with no effect |
| L533K | with no effect |
| L533E | with no effect |
| L531E | with no effect |
| L531A | with no effect |
| L531K | with no effect |
| G538E | with no effect |
| G538A | with no effect |
| G538K | with no effect |
| D573E | with no effect |
| D573A | with no effect |
| D573K | with no effect |
| N576E | with no effect |
| N576K | with no effect |
| N576A | with no effect |
| D551A | with no effect |
| D551E | with no effect |
| D551K | with no effect |
| C525E | with no effect |

| Variant | effect of a mutation on the interaction |
| --- | --- |
| C525A | with no effect |
| C525K | with no effect |
| S568K | with no effect |
| S568E | with no effect |
| S568A | with no effect |
| S568G | disrupting interaction strength |
| I550E | with no effect |
| I550A | with no effect |
| I550K | with no effect |
| I534E | with no effect |
| I534K | with no effect |
| I534A | with no effect |
| A567E | with no effect |
| A567K | with no effect |
| L583E | with no effect |
| L583K | with no effect |
| L583A | with no effect |
| Q569K | with no effect |
| Q569E | with no effect |
| Q569A | with no effect |
| F580E | with no effect |
| F580K | with no effect |
| F580A | disrupting interaction strength |

| Variant | effect of a mutation on the interaction |
| --- | --- |
| G579E | with no effect |
| G579A | with no effect |
| G579K | with no effect |
| K547A | with no effect |
| K547E | with no effect |
| P537A | with no effect |
| P537E | with no effect |
| P537K | with no effect |
| L536K | with no effect |
| L536A | with no effect |
| L536E | with no effect |
| S555A | with no effect |
| S555E | with no effect |
| S555K | with no effect |
| N553K | with no effect |
| N553A | with no effect |
| N553E | with no effect |
| G585A | with no effect |
| G585E | with no effect |
| G585K | with no effect |
| S558K | with no effect |
| S558A | with no effect |
| S558E | with no effect |
